The values that follow come from article PMC6303401, “A NAC transcription factor, NOR-like1, is a new positive regulator of tomato fruit ripening”.

To fix the notation:
B1: SlGgpps2 wild (dsDNA)
DNA 1: TACGTTTAGGATAGGACTTCATTACGTGTCAAGGACAAAAATAAACCTAT
DNA 2: ATAGGTTTATTTTTGTCCTTGACACGTAATGAAGTCCTATCCTAAACGTA
B2: SlCEL2 wild (dsDNA)
DNA 1: ATCCAATAGCATCCCACCACGTGTCGTAACAATATTGGTTTAACCCCAGG
DNA 2: CCTGGGGTTAAACCAATATTGTTACGACACGTGGTGGGATGCTATTGGAT
B3: SlPL wild (dsDNA)
DNA 1: TATCAATAACAGATAGTAATTTTACGTAATGATATTGAACGATGTATATA
DNA 2: TATATACATCGTTCAATATCATTACGTAAAATTACTATCTGTTATTGATA
B4: SlACS4 wild (dsDNA)
DNA 1: GTTTTAACTTTTTAAATATTTTGACGTAAGTTTTTTGTTTTCCCCCAAAA
DNA 2: TTTTGGGGGAAAACAAAAAACTTACGTCAAAATATTTAAAAAGTTAAAAC
B5: SlPG2a wild (dsDNA)
DNA 1: TATTTTAAAAAATACACTTAAAAGCGTGACTAAATATAAATTGTTGCTCA
DNA 2: TGAGCAACAATTTATATTTAGTCACGCTTTTAAGTGTATTTTTTAAAATA
B6: SlEXP1 wild (dsDNA)
DNA 1: CTGAAATTTTAGCTAATTTTAACACGTATTCAATTTTGTATGATTGAATG
DNA 2: CATTCAATCATACAAAATTGAATACGTGTTAAAATTAGCTAAAATTTCAG
B7: SlACS2 wild (dsDNA)
DNA 1: AATAAATTCTTTTTGACAGGGTGGCGTAAAAATAATTTTATTTTAAAATA
DNA 2: TATTTTAAAATAAAATTATTTTTACGCCACCCTGTCAAAAAGAATTTATT
B8: SlSGR1 wild (dsDNA)
DNA 1: TAAGCAGTTATGCGTGTGCTGAAGTTGTTATTTCAAACGTGAAAAGGAAA
DNA 2: TTTCCTTTTCACGTTTGAAATAACAACTTCAGCACACGCATAACTGCTTA

The data set deals with NOR-like1 (Solanum lycopersicum (cv. AC), UniProt K4CH25 1-329). Briefly: EMSA; EMSA kit (Thermo Fisher), manufacturer's instructions; buffer, salt, pH and temperature not stated. As to conditions: protein: recombinant; tags: GST; chain copies: 2; label: biotin; blunt.
NOR-like1, sequence (K4CH25 entry or part of it): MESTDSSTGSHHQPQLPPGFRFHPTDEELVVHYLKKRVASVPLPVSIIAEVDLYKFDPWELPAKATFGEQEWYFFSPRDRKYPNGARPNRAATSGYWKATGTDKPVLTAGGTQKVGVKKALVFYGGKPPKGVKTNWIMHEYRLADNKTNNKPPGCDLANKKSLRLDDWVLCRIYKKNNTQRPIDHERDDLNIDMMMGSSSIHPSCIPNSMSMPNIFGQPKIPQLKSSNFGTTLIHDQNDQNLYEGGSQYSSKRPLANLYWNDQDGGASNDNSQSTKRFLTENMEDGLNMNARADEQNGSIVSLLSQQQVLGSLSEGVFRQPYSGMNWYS
As for B1, the binding result is reported as “binds”.

Turning to B2, the binding result is “binds”.

On to B3, for which the binding result is recorded as “binds”.

With B4, the binding result is on record as “binds”.

As to B5, the binding result is given as “binds”.

Consider B6, for which the binding result is “binds”.

As to B7, the binding result was “binds”.

On to B8, for which the binding result was “binds”.
